# Source: article PMC12853789, “Identification of receptor-binding domains of Bacteroidales antibacterial pore-forming toxins” (The Journal of Biological Chemistry, 2025)
# T1: BSAP-1 (BF638R_1646), recombinant soluble protein with N-terminal His tag (Bacteroides fragilis 638R, UniProt E1WTV1 17-372)
# T1 construct: BSAP-1 of Bacteroides fragilis 638R (BF638R_1646, GenBank CBW22174.1), without the N-terminal signal peptide and the lipidated cysteine (C16); the protein ends at P372; a Ser-Ser-Gly linker follows the His tag; Limits follow from 'excluding the signal peptide and conserved cysteine' (C16) and the CTD's end at P372; no cleavage of the tag is told; also called full-length BSAP-1; purified BSAP-1; …
# T1 sequence: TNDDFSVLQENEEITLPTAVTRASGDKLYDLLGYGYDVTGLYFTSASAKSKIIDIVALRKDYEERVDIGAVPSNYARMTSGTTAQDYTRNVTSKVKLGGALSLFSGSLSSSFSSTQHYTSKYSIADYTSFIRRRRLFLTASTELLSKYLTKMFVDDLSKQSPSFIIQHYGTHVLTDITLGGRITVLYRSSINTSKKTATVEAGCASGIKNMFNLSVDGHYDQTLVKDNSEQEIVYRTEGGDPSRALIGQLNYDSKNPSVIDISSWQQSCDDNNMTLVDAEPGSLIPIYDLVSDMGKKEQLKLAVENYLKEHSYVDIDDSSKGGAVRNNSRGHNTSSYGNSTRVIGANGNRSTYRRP
# Target: T1, BSAP-1 (BF638R_1646), recombinant …
# Test: cryo-EM structure; peak 1 fractions of the BSAP-1 pull-down, in DDM, graphene oxide coated grids; map of the complex ~7 Å, local refinement on B1R^S 4.45 Å
# Conditions: one partner purified
binder,measurement,value
"B1R^S, BSAP-1 receptor (BF9343_1563), untagged, overexpressed in Bacteroides thetaiotaomicron (receptor, Bacteroides fragilis NCTC 9343, UniProt Q5LEV6 1-556, looked up, B1R^S, outer membrane beta-barrel protein of Bacteroides fragilis NCTC 9343 (BF9343_1563, GenBank CAH07344.1); theoretical molecular weight 62 kDa; untagged; in the pull-down it stood in a membrane fraction, in microscopy on cells) QTVYDAAKITGKDLNGTARFVGMGGAMGALGGDISTIGTNPAGIGIYRSNDFMTSFGFSSYGTESKYLGDKFKSDKIQGSFDNLGFVFASKIGNETSLRYVNFGFNYHKAKSFYKNMNMKGGLGNSSQTYQMAQQASGITKWGDYPYDDPEIGWLSILGYDGWLISDITTDKMNAAGKPNSPYVDKDGNQRYDANGKPLYTTPGNYYGMYDDGVANFHSQERGGIDQYDFNVAFNFNDRFYLGLTLGAYAVDYSKYTYYSEAYTGANAPQNYNLRSWNKVRGSGFDLKLGTIIRPFENSPFRIGLAIHTPTFYNLDYKTSARVESDVLNVETGKIDQWSVDTRDKLPGNGDMVREFRLQTPWTYNVSLGYTIGTSLALGAEYEYQDYSTMKFRGPTGSSSEFTFENSTRPMMKGVNTLRLGLEYKVIPQFALRAGYNYTSAIFHGDAFKDLPYYSIQTDTDWANTKALSNYTLGIGYRGSVFYADLAYKFSTYNEDFYPFVNKYEENNATTVLTPETTKVTNTRSQVLFTLGLRF",stoichiometry N,1
